B1: MBP-PIF6_(1-100)-His6 [A. thaliana] / PhyB_(1-651)-Avitag-His6 [modified: phycocyanobilin chromophore; biotin on the Avitag; phycocyanobilin chromophore; biotin on the Avitag] [A. thaliana] (parent)
chain 1: MMFLPTDYCCRLSDQEYMELVFENGQILAKGQRSNVSLHNQRTKSIMDLYEAEYNEDFMKSIIHGGGGAITNLGDTQVVPQSHVAAAHETNMLESNKHVD
chain 2: MVSGVGGSGGGRGGGRGGEEEPSSSHTPNNRRGGEQAQSSGTKSLRPRSNTESMSKAIQQYTVDARLHAVFEQSGESGKSFDYSQSLKTTTYGSSVPEQQITAYLSRIQRGGYIQPFGCMIAVDESSFRIIGYSENAREMLGIMPQSVPTLEKPEILAMGTDVRSLFTSSSSILLERAFVAREITLLNPVWIHSKNTGKPFYAILHRIDVGVVIDLEPARTEDPALSIAGAVQSQKLAVRAISQLQALPGGDIKLLCDTVVESVRDLTGYDRVMVYKFHEDEHGEVVAESKRDDLEPYIGLHYPATDIPQASRFLFKQNRVRMIVDCNATPVLVVQDDRLTQSMCLVGSTLRAPHGCHSQYMANMGSIASLAMAVIINGNEDDGSNVASGRSSMRLWGLVVCHHTSSRCIPFPLRYACEFLMQAFGLQLNMELQLALQMSEKRVLRTQTLLCDMLLRDSPAGIVTQSPSIMDLVKCDGAAFLYHGKYYPLGVAPSEVQIKDVVEWLLANHADSTGLSTDSLGDAGYPGAAALGDAVCGMAVAYITKRDFLFWFRSHTAKEIKWGGAKHHPEDKDDGQRMHPRSSFQAFLEVVKSRSQPWETAEMDAIHSLQLILRDSFKESEAAMNSKVVDGVVQPCRDMAGEQGIDELGA

The variants in the experiment derive from B1. Description: size exclusion chromatography (gel filtration, Superdex 200 10/300 GL, A671 nm). To be noted: with PhyB_(1-651)-Avitag-His6 [modified: phycocyanobilin chromophore, PhyB illuminated with 660 nm light, PhyB:MBP-PIF 2:1 molar ratio, 60 min at room temperature, parent: 56, read off a plot. On the technique in general: In gel filtration, larger molecules generally elute earlier.
As to chain 1 MMFLPTDYCCRLSDQEYMELVFENGQILAKGQRSNVALHNQRTKSIMDLYEAEYNEDFMKSIIHGGGGAITNLGDTQVVPQSHVAAAHETNMLESNKHVD [chain 1 S37A], the response (% PhyB-PIF complex) amounted to 57.
The result for chain 1 MMFLPTDYSSRLSDQEYMELVFENGQILAKGQRSNVSLHNQRTKSIMDLYEAEYNEDFMKSIIHGGGGAITNLGDTQVVPQSHVAAAHETNMLESNKHVD [chain 1 C9S C10S] reads 64; that for chain 1 MMFLPTDYSSRLSDQEYMELVFENGQILAKGQRSQVSLHNQRTKSIMDLYEAEYNEDFMKSIIHGGGGAITNLGDTQVVPQSHVAAAHETNMLESNKHVD [chain 1 C9S C10S N35Q], 54; that for chain 1 MMFLPTDYCCRLSDQEYMELVFENGQILAKGQRSQVSLHNQRTKSIMDLYEAEYNEDFMKSIIHGGGGAITNLGDTQVVPQSHVAAAHETNMLESNKHVD [chain 1 N35Q], 52.
